Source: US20250282868A1 (ITEOS BELGIUM, published 2025)
Numbering of substitutions follows the chain as printed.

T1: human TREM2 (human, UniProt Q9NZC2 19-230)
T1 sequence: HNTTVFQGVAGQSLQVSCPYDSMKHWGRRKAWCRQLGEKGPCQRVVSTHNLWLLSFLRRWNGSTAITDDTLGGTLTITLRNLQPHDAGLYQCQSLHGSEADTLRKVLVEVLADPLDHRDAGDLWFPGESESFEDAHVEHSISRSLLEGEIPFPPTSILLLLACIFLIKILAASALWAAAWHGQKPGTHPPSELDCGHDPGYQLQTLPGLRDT

T2: mouse TREM2 (mouse, UniProt Q99NH8 19-227)
T2 construct: whole, on cells
T2 sequence (looked up): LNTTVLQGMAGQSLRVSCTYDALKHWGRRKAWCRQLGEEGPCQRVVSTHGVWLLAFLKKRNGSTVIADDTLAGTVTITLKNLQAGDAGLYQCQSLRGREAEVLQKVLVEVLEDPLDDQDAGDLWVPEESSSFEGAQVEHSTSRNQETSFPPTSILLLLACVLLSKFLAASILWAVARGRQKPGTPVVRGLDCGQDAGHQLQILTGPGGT

T3: cynomolgus TREM2 (cynomolgus, UniProt A0A2K5UY34 49-260)
T3 construct: also called cynoTREM2; cTREM2
T3 sequence: T1 sequence with A10E, W60R, L89F, F125V, I157V, L193P, Y201H

B1: 6E7 (antibody, V domains shown)
VH: EVQLVQSGAEVKKPGESLKISCKGSGYSFTSYWIAWVRQMPGKGLEWMGIIYPGDSDTRYSPSFQGQVTISADKSISTAYLQWSSLKASDTAMYFCARQRTFYYDSSDYFDYWGQGTLVTVSS
VL: DIQMTQSPSSVSASVGDRVTITCRASQGISSWLAWYQQKPGKAPKLLIYAASSLQNGVPSRFSGSGSGTDFTLTISSLQPEDFATYFCQQADSFPRTFGQGTKLEIK
B2: PN-37012 (antibody, V domains shown)
VH: EVQLLESGGGLVQPGGSLRLSCAASGFTFSNYYMAWVRQAPGKGLEWVSSLTNSGGSTYYADSVKGRFTISRDNSKNTLYLQMNSLRAEDTAVYYCTREWAGSGYFDYWGQGTLVTVSS
VL: DIQMTQSPSSLSASVGDRVTITCKASQNVGNNLAWYQQKPGKAPKLLIYYTSNRFTGVPSRFSGSGSGTDFTLTISSLQPEDFATYYCQRIYNSPWTFGQGTKLEIK
notes: benchmark anti-TREM2 antibody from US20190309064
B3: EOS006163 (antibody, V domains shown)
VH: QVQLVQSGAEVKKPGSSVKVSCKASGGTFAQYAISWVRQAPGQGLEWMGVIIPDSGTANYAQKFQGRVTITADESTSTAYMELSSLRSEDTAVYYCARTQENTIFDIWGQGTMVTVSS
VL: EIVLTQSPATLSLSPGERATLSCRASQSVSSYLAWFQQKPGQAPRLLIYDASNRATGIPARFSGSGSGTDFTLTISSLEPEDFAVYYCQQDYEWPITFGGGTKVEIK
B4: EOS006171 (antibody, V domains shown)
VH: QVQLVESGGGLVKPGGSLRLSCAASGFTFSDYYMSWIRQAPGKGLEWVSYISSSGSTIYYADSVKGRFTISRDNAKNSLYLQMNSLRAEDTAVYYCARLGGYYSLGPMDVWGQGTTVTVSS
VL: B3 VL with F36Y, Y92S, E93A, W94F, I96F
B5: EOS006181 (antibody, V domains shown)
VH: EVQLVESGGGLVQPGRSLRLSCTASGFTFDDHAMSWFRQAPGKGLEWVGFIGSKAYGGTTEYTASVKGRFTISRDGSKSIAYLQMNSLKTEDTAVYYCARGKRYSYTYWTPAFDVWGQGTMVTVSS
VL: DIQMTQSPSSLSASVGDRVTITCQASQDITNYLNWYQQKPGKAPKLLIYDASNLETGVPSRFSGSGSGTDFTFTISSLQPEDIATYYCQQYDSYLTFGGGTKVEIK
B6: Ab52 (antibody, V domains shown)
VH: QVQLVQSGAEVKKPGASVKVSCKASGYTFTSYYIHWVRQAPGQGLEWMGIINPSGGSTSYAQKFQGRVTMTRDTSTSTVYMELSSLRSEDTAVYYCAREADDSSGYPLGLDVWGQGTMVTVSS
VL: EIVMTQSPATLSVSPGERATLSCRASQSVSSNLAWYQQKPGQAPRLLIYGASTRATGIPARFSGSGSGTEFTLTISSLQSEDFAVYYCQQVNSLPPTFGGGTKVEIK
notes: benchmark anti-TREM2 antibody from WO2016023019A2
B7: EOS006176 (antibody, V domains shown)
VH: EVQLLESGGGLVQPGGSLRLSCAASGFTFSTHAMTWVRQAPGKGLEWVSAISANAGKTYYADSVKGRFTISRDNSKNTLYLQMNSLRAEDTAVYYCASLRGGYEVGPTFDSWGQGTLVTVSS
VL: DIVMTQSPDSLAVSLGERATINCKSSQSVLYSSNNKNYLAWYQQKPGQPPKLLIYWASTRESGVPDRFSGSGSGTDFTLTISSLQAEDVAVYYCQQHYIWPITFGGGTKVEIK
B8: EOS006178 (antibody, V domains shown)
VH: B7 VH with T31N, H32Y, A33G, T35G, S111P
VL: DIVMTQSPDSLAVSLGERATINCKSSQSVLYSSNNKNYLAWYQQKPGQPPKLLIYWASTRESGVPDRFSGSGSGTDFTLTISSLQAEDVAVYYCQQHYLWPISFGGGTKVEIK
B9: 14D3 (antibody, V domains shown)
VH: EVKLLEFGGGLVQPGGSMRLSCAASGFTFTDFYMNWIRQPAGRAPEWLGLIRNKTKGYTTEYNRSVKGRFTISRDNTQNMLYLQMNSLRPEDTATYYCARIGVNNGGSLDYWGQGVMVTVSS
VL: DILIIQSPASLTVSAGARVTMSCKSSQSLLYSENNQDYLAWYQQKPGQFPKLLIYGASNRHTGVPDRFTGSGSGTDFTLTISSVQAEDLADYYCEQTYSYPYTFGAGTKLELK

Columns and labels:
[1] = biological target: T1, human TREM2; assay: cell-based or functional assay
[2] = biological target: T2, mouse TREM2; assay: MFI on CT26 cells over-expressing mouse TREM2 and DAP12
Procedure: (§1) Cross-reactivity to mouse TREM2 was assessed using CT26 cells over-expressing mouse TREM2 and DAP12 (Table 23). Eight anti-TREM2 antibodies and both benchmark antibodies were considered cross-reactive to mouse TREM2 (MFI higher than isotype control and fold change of CT26-TREM2 over the CT26 Empty Vector higher than 5). The remaining anti-TREM2 antibodies were considered as being low to not cross-reactive (fold change less than 5). EOS006171 was not tested due to clear non-cross-reactivity preliminary data by octet (data not shown).

[3] = biological target: T2, mouse TREM2; assay: MFI on CT26 cells over-expressing mouse TREM2 and DAP12 vs CT26 empty vector
Procedure: as §1

[4] = biological target: T1, human TREM2; assay: flow cytometry, competition with LDL-Alexafluor-488 on CHO cells overexpressing human TREM2/DAP12
Procedure: Exemplary anti-TREM2 antibodies were tested in order to characterize their ability to enter in competition with TREM2 ligand, LDL, on CHO overexpressing human TREM2/DAP12. Antibodies (dose response curves from 66.65 nM to 0.07 nM) were incubated for 30 min with cells in a soluble fashion, followed by an incubation with LDL coupled with Alexafluor-488 (at 1 μg/mL final) for 30 min. Finally, after 2 washes, cells were acquired on flow cytometer. The median MFI of Alexafluor-488 was used to plot the graphs. Benchmark antibody MOR044746 was used as positive control.

[5] = biological target: T1, human TREM2; assay: flow cytometry, THP-1 WT vs THP-1 TREM2 KO cells, 10 ug/ml
Procedure: (§2) In order to test specificity of selected antibodies to TREM2, binding was tested by flow cytometry on THP-1 TREM2 KO (clone, produced using CRISPR technology in house) and on THP-1 WT. Cells were incubated with selected anti-TREM2 antibodies (final concentration of 10 μg/ml) for 30 min at 4° C. After washing, bound antibodies were detected with a secondary anti-human IgG Fc PE-labelled for 30 min at 4° C. Fluorescence intensity was measured by flow cytometry.

[6] = biological target: T1, human TREM2; assay: flow cytometry, THP-1 WT cells, 10 ug/ml
Procedure: as §2

[7] = biological target: T1, human TREM2; assay: flow cytometry, M2a-like macrophages, dose-response
Procedure: (§3) M2a-like macrophages were produced in vitro from monocytes of healthy donors. Briefly, after PBMCs isolation from peripheral blood using Lymphoprep™ gradient, CD14+ cells were purified and seeded in presence of MCSF 50 ng/ml for 6 days. Macrophages were then cultured with IL-13 and IL-4 at a concentration of 20 ng/ml for two additional days and then used for a cell-based binding assay.
(§4) M2a-like macrophages were incubated with anti-TREM2 antibodies (dose-response curve with 11 concentrations from 10 μg/ml to 0.0001 μg/ml) for 30 min at 4° C. After washing, bound antibodies were detected with a secondary anti-human IgG Fc PE-labelled for 30 min at 4° C. Fluorescence intensity was measured by flow cytometry. Equilibrium dissociation constant (kD) was then calculated for each antibody using median MFI normalized over isotype control.

[8] = biological target: T3, cynomolgus TREM2; assay: MFI on CHO cells over-expressing cynoTREM2-DAP12
Procedure: (§5) Cross-reactivity of anti-TREM2 antibodies to cynomolgus TREM2 (cynoTREM2) was assessed using CHO over-expressing cynoTREM2-DAP12 (Table 22). Benchmark antibodies, AB52 and PN-37012, were examined for comparison.

[9] = biological target: T1, human TREM2; assay: cell-based or functional assay; remark: listed apart in the source
[10] = biological target: T1, human TREM2; assay: flow cytometry, M2a-like macrophages
Procedure: as §3, §4

[11] = biological target: T3, cynomolgus TREM2; assay: MFI on CHO cells over-expressing cynoTREM2-DAP12 vs CHO empty vector
Procedure: as §5

Binder | Fold over isotype control at 66 nM [1] [fold] | pSYK/TotSYK EC50 (nM) [1] [nM] | Binding to CT26-TREM2 MFI [2] [MFI] | MFI Fold change (CT26-TREM2 over CT26-EV) [3] [fold] | IC50 [4] [nM] | MFI Fold change (THP-1 WT over THP-1 TREM2 KO) [5] [fold] | Fold over isotype control THP1 WT [6] [fold] | Kd [7] [nM] | Binding to CHO-cTREM2 MFI [8] [MFI] | Stabilization ratio (Mean of 2 replicates) [9] [ratio] | Fold over isotype [10] [fold] | MFI Fold change (CHO-cTREM2 over CHO-EV) [11] [fold]
B1 | 1.93 | 1.29 | – | – | – | – | – | – | – | – | – | –
B2 | – | – | 6750 | 21 | – | – | – | – | – | – | – | –
B3 | 0.701 | – | – | – | 0.169 | 5.1 | 2.7 | 0.15 | 17700 | 0.42 | 13 | 395
B4 | 2.4 | 9.7 | – | – | – | 4.3 | 6.6 | 2.8 | 13400 | 0.46 | – | 495
B5 | 2.84 | 1.09 | 4690 | 17.4 | 0.28 | 4.8 | 3.5 | – | 11900 | 0.69 | 9.3 | 251
B6 | – | – | 8810 | 33.6 | – | – | – | – | 25500 | – | – | 602
B7 | 2.65 | 4.05 | 6340 | 15 | – | 3.4 | 2.7 | – | 20400 | 0.6 | 13.1 | 388
B8 | 2.51 | 3.89 | 6790 | 15.8 | – | 2.4 | 2.1 | – | 19700 | 0.64 | 5.4 | 334
B9 | – | – | – | – | – | – | – | – | – | 0.96 | – | –
